Measurements reported in paper PMC12647017, “Discovery and optimization of a synthetic small protein domain targeting antibodies” (Frontiers in Bioengineering and Biotechnology, 2025).

How the values were obtained:
hIgG = assay: ELISA of soluble fractions of native and mutated WW domains against hIgG; type: binding; conditions: human IgG, soluble fraction, ABTS
Description: The soluble fraction of 100 mL cultures (100 μL) was used for ELISA against hIgG, as described in ([Dias et al., 2025]). Briefly, the target hIgG was immobilized (1 μg/well) in 0.1 M Sodium Bicarbonate pH 8.6 in Immuno Maxisorp ELISA plates (Thermo Fisher), overnight at 4 °C. In the next day, the unbound hIgG was removed, and the wells washed with PBS1x. To the wells was added the blocking solution – 5% (v/v) Soya Milk in PBS 1x and incubated for 1 h at room temperature. The wells were washed and incubated with 100 µL of soluble fraction (∼0.065 mg/mL total protein) at room temperature for 2 h.
The unbound WW domains were removed, and the wells were washed using 4 times PBS1x-0.05% Tween 20 and 1 time with PBS1x. For detection was used 1:1,000 anti-His-HRP conjugated antibody (MA1-21315-HRP, Invitrogen) in 1% (v/v) Soya Milk in PBS1x and incubated for 1 h at RT, after that the wells were washed with 5x PBS1x. The detection occurred with ABTS (2,2′-azino-bis(3-ethylbenzothiazoline-6-sulfonic acid) ready solution (11684302001, Roche), which was incubated in the dark for 1 h at 37 °C. Finally, the results were analysed in a microplate reader (Tecan) with appropriate filter at Abs405nm.
Figure S6 – Production and signal characterization of mutated versions. A – Tris-Tricine gels after cell lysis of the WW prototype sequence (WWp, band at ~8KDa), mutated WWp5_4 scaffold (WWp5_4_M2, band at ~8 kDa) and mutated E6 (E6_M2, band at ~ 12kDa). Samples were normalized 90µg total protein/lane. M - Precision Plus Protein™ Dual Xtra Prestained, Biorad; SF – soluble fraction; ISF – insoluble fraction. B1, B2, and B3 indicate production batchs in 1L culture, except for WWp B1 – 100 mL, WWp_5_4 B2 – 900 mL. Stained with Simplyblue. […] The detection of the clones was made with anti-His conjugated antibody with HRP and detected with ABTS as substrate.
Figure S7 – Comparison between ELISA signal of E6 versus E6_M2. […] The expression levels were detected by direct coating of the microplate well with the soluble fraction of the extract. […] All were detected with ABTS as substrate.

[1] = Solubility / precipitation observed during production, dialysis and purification; type: physicochemical
Description: Therefore, after expression the soluble fractions were further centrifuged at 42,000 g for 20 min at 4 °C. As the samples were diluted (∼5 mg/mL in 25 mL lysis buffer), the soluble fractions were lyophilized and resuspended in 4 mL of water. The samples were dialyzed (Membranes Spectra Pre-Treated 1 kDa, Carl Roth) to Binding buffer without imidazole (20 mM Sodium Phosphate, 500 mM Sodium Chloride pH 7.4) for 24 h at 16 °C. The samples were quantified by […] (typically ∼6 mg/mL), this solution was diluted 1:2 in Binding buffer (20 mM Sodium Phosphate, 500 mM Sodium Chloride, 20 mM imidazole pH 7.4) and purified in a gravitational flow with 6 mL of resin (IMAC Sepharose 6 Fast Flow (Ni^2+), Cytiva) packed in a PD-10 column. The column was prepared using the indications of the manufacturer. The binding of the protein to the column was maximized by an incubation for 1 h at room temperature in agitation at 40rpm. The resin was washed 4 x column volumes (CV) with binding buffer. The elution as achieved by incubation for 15min with elution buffers. We used a gradient with 3 x CV elution buffer 1 (binding buffer with 100 mM imidazole) and 3 x CV elution buffer 2 (binding buffer with 200 mM imidazole).
The most enriched elutions in WW domains (60%–70% purity) were combined and dialysed against PBS1x (10 mM Na2HPO4, 1.8 mM KH2PO4, 2.7 mM KCl, 137 mM NaCl pH 7.4) with routine changes of buffer up to 48 h at 16 °C. Following the samples were concentrated with a Amicon-Ultra15 3 kDa MWCO (Millipore) with centrifugation conditions 4,900 g, 30 min, 4 °C. The final samples were quantified by BCA assay.
Size Exclusion Chromatography (SEC). The samples were further purified by SEC to achieve 90% purity in a AKTA system (Cytiva). The column Superdex 75 Increase 10/300 GL (29148721, Cytiva) was washed with water and equilibrated 2CV in PBS1x, as described by the manufacturer. As calibrants we prepare a mixture: 2 mg/mL of Bovine Serum Albumin (66 kDa, BP9702-100, FisherScientific), Ovalbumin (42 kDa, A5503-1G, Sigma), Chicken Lysozyme ([…], 62,971–10G-F, Fluka) and hPin1_WW chemically synthesized (5 kDa, produced in ([Dias et al., 2015])) in PBS 1x, this sample was filtered with 0.2 µm PES (514–0073, VWR) and analysed. The operation conditions: flow 0.5 mL/min, 0.05 CV in PBS1x and injection of 250 µL and run for 2 CV with PBS 1x at 16 °C. The same method was used for the WW domain samples. After purifications samples were quantified for total protein by BCA assay, as described previously and used for characterization.

[2] = target: human IgG conjugated with fluorescein isothiocyanate (IgG-FITC) (human); assay: MST; IgG-FITC fixed at 50 nM; 16 serial dilutions of E6 from 23.5 uM to 0.7 nM; 50 mM MOPS, 0.05% Tween-20, pH 7; 25 C; fit models Kd and Hill
[3] = target: human IgG conjugated with fluorescein isothiocyanate (IgG-FITC) (human); assay: MST; hIgG-FITC (Sigma F9636) fixed at 25 nM; 16 samples of E6_M2_T2 from 695 nM in 1:2 serial dilution; PBS, 0.05% Tween-20, pH 7.4; 25 C; fit models Kd and Hill

## C S GK LPPGW E E R KTRRFKLG R TYYYNHHILSKTS Q W EH PR G SS [Clone E6_M2, E6 with mutated framework and N-terminal Cys]
hIgG; E6 detected with anti-HA-HRP, E6_M2 and Rosetta extract with anti-His-HRP
  binding signal relative to negative control (E. coli Rosetta extract): 2 times
hIgG; anti-His-HRP, Abs405nm
  binding signal relative to scaffold framework (WWp5_4): 2 times
[1]; IMAC purification without chaotropic agents
  solubility compared with native counterpart E6: higher solubility than the native counterpart
[1]; dialysis against PBS1x pH 7.4, up to 48 h at 16 °C
  precipitation / solubility after dialysis: some precipitation

## SMGLPPGWDEYKTRRFKLGKTYYYNHHILSKTSTWTDPRMSS (designed binder) [E6 (lead ligand, WWp5_4 scaffold), without tag]
[2]
  EC50: 146 nM
  Kd: 133 nM

B1: E6_M2_T2 (head-to-tail dimer of E6_M2) (designed binder)
chain: CSGKLPPGWEERKTRRFKLGRTYYYNHHILSKTSQWEHPRGSSSGKLPPGWEERKTRRFKLGRTYYYNHHILSKTSQWEHPRGSS
[3]
  EC50: 157 nM
  Kd: 62 nM
